Patent US20030228675

Columns and labels:
[1] = target: GST-hUpf1 1019-1118 (GST fusion protein containing the carboxyl-terminal region of hUpf1, amino acids 1019-1118) (UniProt Q92900)
[2] = test system: GST-p53 1-70 (GST fusion protein containing the first 70 amino acids of p53)

Substance | phosphorylation in immune complex kinase assay [1] | specific kinase activity in immune complex kinase assay [2] | phosphorylation in immune complex kinase assay, compared with GST-hUpf1 1019-1118 [2] | specific kinase activity (ratio of 32P incorporation into substrate to level of HA-tagged protein kinase), relative to ATMWT [2] | phosphorylation in immune complex kinase assay (GST-p53 1-70 (S15A))
HA-ATMWT (HA-tagged wild-type ATM) | this substrate was phosphorylated by both ATM and ATX, with the latter protein kinase showing the higher specific catalytic activity | the specific kinase activity of HA-ATXWT towards GST-p531-70 was significantly higher than that of HA-ATM | – | – | –
HA-ATXWT (HA-tagged wild-type long ATX) | this substrate was phosphorylated by both ATM and ATX, with the latter protein kinase showing the higher specific catalytic activity | – | GST-p531-70 was more avidly phosphorylated by ATX than was the GST-hUpf11019-1118 substrate | the specific kinase activity of ATXWT was approximately 3.5-fold higher than that of ATMWT | phosphorylation of GST-p531-70 by ATXWT was nearly abolished by substitution of the Ser-15 residue in p53 with Ala
